Data set [1] deals with 6xHis-AtSUMO1-eGFP.
Data set [2] has as its target 6xHis-AtSUMO2-eGFP.
Data set [3] concerns the target 6xHis-T-SUMO-eGFP.
Data set [4] concerns the target 6xHis-hSUMO-1-eGFP.
Data set [5] addresses 6xHis-hSUMO-3-eGFP.
In data set [6] the target is 6xHis-ySmt3-eGFP.
The target of data set [7] is 6xHis-hSUMO-3-X-eGFP, X = A.
Data set [8] addresses 6xHis-hSUMO-3-X-eGFP, X = C.
Data set [9] addresses 6xHis-hSUMO-3-X-eGFP, X = D.
Data set [10] has as its target 6xHis-hSUMO-3-X-eGFP, X = E.
Data set [11] addresses 6xHis-hSUMO-3-X-eGFP, X = F.
Data set [12] deals with 6xHis-hSUMO-3-X-eGFP, X = G.
Data set [13] has as its target 6xHis-hSUMO-3-X-eGFP, X = H.
Data set [14] concerns the target 6xHis-hSUMO-3-X-eGFP, X = I.
Data set [15] has as its target 6xHis-hSUMO-3-X-eGFP, X = K.
Data set [16] concerns the target 6xHis-hSUMO-3-X-eGFP, X = L.
Data set [17] concerns the target 6xHis-hSUMO-3-X-eGFP, X = N.
Data set [18] addresses 6xHis-hSUMO-3-X-eGFP, X = P.
For data set [19], the target named is 6xHis-hSUMO-3-X-eGFP, X = Q.
Data set [20] addresses 6xHis-hSUMO-3-X-eGFP, X = R.
In data set [21] the target is 6xHis-hSUMO-3-X-eGFP, X = S.
Data set [22] deals with 6xHis-hSUMO-3-X-eGFP, X = T.
Data set [23] addresses 6xHis-hSUMO-3-X-eGFP, X = V.
The target of data set [24] is 6xHis-hSUMO-3-X-eGFP, X = W.
Data set [25] concerns the target 6xHis-hSUMO-3-X-eGFP, X = Y.

B1: human SENP1 (hSENP1) SUMO protease catalytic domain (protein)
chain: MASFPEITEEMEKEIKNVFRNGNQDEVLSEAFRLTITRKDIQTLNHLNWLNDEIINFYMNMLMERSKEKGLPSVHAFNTFFFTKLKTAGYQAVKRWTKKVDVFSVDILLVPIHLGVHWCLAVVDFRKKNITYYDSMGGINNEACRILLQYLKQESIDKKRKEFDTNGWQLFSKKSQIPQQMNGSDCGMFACKYADCITKDRPINFTQQHMPYFRKRMVWEILHRKLLEHHHHHH
For the protein B1, the “activity level (grade)” value is “+/-” in [1]; “+/-” in [2]; “+/-” in data set [3]; “+/-” in data set [4]; “+” in data set [5]; “++” in data set [6]. Also, the “cleavage, single enzyme concentration, SDS-PAGE” value is listed as “It also cleaved the other 4 fusions, but to a much lesser extent” in data set [1]; “It also cleaved the other 4 fusions, but to a much lesser extent” in [2]; “It also cleaved the other 4 fusions, but to a much lesser extent” in data set [3]; “It also cleaved the other 4 fusions, but to a much lesser extent” in [4]; “cleaved ySmt3 the best, followed by hSUMO-3” in [5]; “hSENP1, which cleaved ySmt3 the best” in data set [6].

B2: human SENP6 (hSENP6) SUMO protease catalytic domain (protein)
chain: MGENHTIFIGPVEKLIVYPPPPAKGGISVTNEDLHCLNEGEFLNDVIIDFYLKYLVLEKLKKEDADRIHIFSSFFYKRLNQRERRNHETTNLSIQQKRHGRVKTWTRHVDIFEKDFIFVPLNEAAHWFLAVVCFPGLEKPKYEPNPHYHENAVIQKCSTVEDSCISSSASEMESCSQNSSAKPVIKKMLNKKHCIAVIDSNPGQEESDPRYKRNICSVKYSVKKINHTASENEEFNKGESTSQKVADRTKSENGLQNESLSSTHHTDGLSKIRLNYSDESPEAGKMLEDELVDFSEDQDNQDDSSDDGFLADDNCSSEIGQWHLKPTICKQPCILLMDSLRGPSRSNVVKILREYLEVEWEVKKGSKRSFSKDVMKGSNPKVPQQNNFSDCGVYVLQYVESFFENPILSFELPMNLANWFPPPRMRTKREEIRNIILKLQEDQSKEKRKHKDTYSTEAPLGEGTEQYVNSISDLEHHHHHH
For the protein B2, the “activity level (grade)” value in [1] is “-”; in data set [2], “-”; in data set [3] it was “-”; in [4], “-”; in data set [5], “+/-”; in data set [6] it was “-”. In addition, the “cleavage, single enzyme concentration, SDS-PAGE” value was “did not digest the others at the incubation time and enzyme concentration used” in data set [1]; “did not digest the others at the incubation time and enzyme concentration used” in data set [2]; “did not digest the others at the incubation time and enzyme concentration used” in [3]; “did not digest the others at the incubation time and enzyme concentration used” in [4]; “demonstrated partial cleavage of hSUMO-3-eGFP” in data set [5]; “did not digest the others at the incubation time and enzyme concentration used” in [6].

B3: Arabidopsis thalania ULP1c (AtULP1c) SUMO protease catalytic domain (protein)
chain: MVVEEACELPEGLPEDIYYPSSDQSDGRDLVQVSLKDLKCLSPGEYLTSPVINFYIRYVQHHVFSADKTAANCHFFNTFFYKKLTEAVSYKGNDRDAYFVKFRRWWKGFDLFCKSYIFIPIHEDLHWSLVIICIPDKEDESGLTIIHLDSLGLHPRNLIFNNVKRFLREEWNYLNQDAPLDLPISAKVWRDLPNMINEAEVQVPQQKNDFDCGLFLLFFIRRFIEEAPQRLTLQDLKMIHKKWFKPEEASALRIKIWNILVDLFRKGNQTDLEHHHHHH
Take B3: the “activity level (grade)” value in data set [1], in data set [2], in [3], in data set [4], in [5] and in data set [6] was “-” throughout. Besides, the “cleavage, single enzyme concentration, SDS-PAGE” value in [1], in [2], in [3], in data set [4], in data set [5] and in [6] was “AtULP1c did not show activity against any of the SUMO fusions” in each case.

B4: Saccharomyces cerevisiae Ulp1 SUMO protease catalytic domain (protein)
chain: MGLVPELNEKDDDQVQKALASRENTQLMNRDNIEITVRDFKTLAPRRWLNDTIIEFFMKYIEKSTPNTVAFNSFFYTNLSERGYQGVRRWMKRKKTQIDKLDKIFTPINLNQSHWALGIIDLKKKTIGYVDSLSNGPNAMSFAILTDLQKYVMEESKHTIGEDFDLIHLDCPQQPNGYDCGIYVCMNTLYGSADAPLDFDYKDAIRMRRFIAHLILTDALKLEHHHHHH
With B4, the “activity level (grade)” value in [1] was “++”; in [2] it was “++”; in data set [3], “++”; in data set [4], “+”; in [5], “+”; in data set [6] it was “++++”. Besides, the “cleavage, 2-fold enzyme dilution series, SDS-PAGE” value in [1] is “Both hSENP2 and yUlp1 cleaved the AtSUMO1 fusion similarly”; in [2], “a slight advantage in the cleavage of AtSUMO2-eGFP”; in data set [3] it was “yUlp1 had a distinct advantage in the cleavage of T-SUMO-eGFP”. Moreover, the “cleavage, time course, SDS-PAGE” value in data set [1] is “cleaving not only T-SUMO but also AtSUMO1 and AtSUMO2 significantly better than did hSENP2”; in data set [2], “cleaving not only T-SUMO but also AtSUMO1 and AtSUMO2 significantly better than did hSENP2”; in [3] it was “cleaving not only T-SUMO but also AtSUMO1 and AtSUMO2 significantly better than did hSENP2”; in [4], “both enzymes cleaving hSUMO-1-eGFP poorly”; in [5] it was “yUlp1 was able to cleave apparently less than half of the substrate in 4 hrs”; in data set [6], “both enzymes cleaving hSUMO-1-eGFP poorly and ySmt3-eGFP well”. Moreover, the Percent cleavage, enzyme:substrate 1:100 in data set [7] was determined as 96.3%; in data set [8], 98.4%; in data set [9], 92.3%; in [10], 80.1%; in data set [11], 95.4%; in data set [12], 96.5%. The Percent cleavage, enzyme:substrate 1:100 in data set [13] came to 90.8%; in data set [14], 1.9%; in data set [15] it was 22.4%; in data set [16], 4.4%; in data set [17] it was 97.9%; in [18], 0%. Moreover, the Percent cleavage, enzyme:substrate 1:100 worked out at 65.5% in [19]; 96.6% in data set [20]; 98.2% in [21]; 95.8% in [22]; 20.2% in data set [23]; 89.7% in data set [24]. The Percent cleavage, enzyme:substrate 1:100 in data set [25] is 96.9%; in [5], 98.3%. Also, the Percent cleavage, enzyme:substrate 1:1000 amounted to 27.1% in data set [7]; 25.3% in data set [8]; 3.3% in data set [9]; 11.3% in [10]; 27% in data set [11]; 27% in [12]. In addition, the Percent cleavage, enzyme:substrate 1:1000 stood at 25.5% in [13]; 0% in data set [14]; 0% in data set [15]; 0% in data set [16]; 16.9% in data set [17]; 0% in [18]. The Percent cleavage, enzyme:substrate 1:1000 in data set [19] worked out at 3.7%; in data set [20], 17.2%; in [21], 16.7%; in data set [22], 14.3%; in data set [23], 4%; in data set [24], 16.8%. Besides, the figures for the Percent cleavage, enzyme:substrate 1:1000 in data set [25] and in data set [5] were 16.9% and 18.4%, respectively. In addition, the Kcat result is “Kcat = 0.027” in data set [5] and “Kcat = 0.40” in data set [6]. The Km entry is “Km = 15.8 mM” in data set [5] and “Km = 4.5 mM” in data set [6].

Source of the values: patent US20100021987.
